Assay results: patent US20170081379A1
Bridge positions count the residues as written; N and C are the ends. Square brackets hold non-standard residues; d marks the D form. Ends that are not written are not given here. R8 = C=CCCCCCC[C@@](C)(N)C(=O)O; S5 = C=CCCC[C@](C)(N)C(=O)O

Key:
[1] = target: recombinant HDM2 17-125 (human) (UniProt Q00987); test: fluorescence polarization, FITC-labeled peptide with HDM2 17-125
[2] = target: recombinant HDM2 17-125 (human) (UniProt Q00987); test: fluorescence polarization, FITC-peptide with titrated HDM2 17-125; the concentration is that of hDM2

Chain of recombinant HDM2 17-125 (human) (Q00987 17-125 limits assumed): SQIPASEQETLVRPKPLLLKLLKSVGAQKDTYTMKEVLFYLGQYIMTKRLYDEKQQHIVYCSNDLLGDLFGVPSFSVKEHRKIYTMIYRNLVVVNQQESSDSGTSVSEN

| Binder | Kd [1] | EC50 (read off the curve) [2] |
| --- | --- | --- |
| LSQQTF[R8]NLWRLL[S5]QN-NH2 (peptide, from a related filing, staple 7-14; not fully specified (N-terminus)) [FITC-SAH-p53-6] | 56 nM |  |
| QSQQTF[R8]NLWKLL[S5]QN-NH2 (peptide, from a related filing, staple 7-14; not fully specified (N-terminus)) [FITC-SAH-p53-7] | 50 nM |  |

These reach a lower Kd [1]. Values come first.

| Kd [1] | EC50 (read off the curve) [2] | Binder |
| --- | --- | --- |
| 0.8 nM | 800 pM | LSQETF[R8]NLWKLL[S5]QN-NH2 (peptide, from a related filing, staple 7-14; not fully specified (N-terminus)) [FITC-SAH-p53-5] |
| 0.92 nM |  | LSQETF[R8]DLWKLL[S5]EN-NH2 (peptide, from a related filing, staple 7-14; not fully specified (N-terminus)) [FITC-SAH-p53-4] |
